Patent US20040087498A1, “Modified factor VII” (Novo Nordisk Health Care AG, priority 1991, published 2004)

Key:
[1] = tested on: gram-negative bacteremia; assay: Survival of treated baboons; type: in vivo, baboon
[2] = biological target: T1, cell-surface tissue factor on rat smooth muscle cells (Rattus norvegicus, UniProt P42533); assay: Dose-dependent cell-surface chromogenic activity on rat smooth muscle cells; type: cell-based
T1 construct: endogenous in cells; host or cells: rat vascular smooth muscle cells
T1 sequence (P42533 29-295): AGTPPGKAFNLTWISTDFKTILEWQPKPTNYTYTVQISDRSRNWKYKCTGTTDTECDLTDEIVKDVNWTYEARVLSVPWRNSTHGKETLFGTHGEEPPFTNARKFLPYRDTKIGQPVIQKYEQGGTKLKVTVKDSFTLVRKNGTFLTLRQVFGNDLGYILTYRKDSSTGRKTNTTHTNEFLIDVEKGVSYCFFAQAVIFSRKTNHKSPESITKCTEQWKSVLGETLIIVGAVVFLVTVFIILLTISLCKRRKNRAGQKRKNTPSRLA
Protocol: Rat vascular smooth muscle cells were plated into 96-well culture dishes at 4,000 cells per well in growth medium supplemented with 1% fetal calf serum (as in Table 4 without 10% fetal calf serum). […] The cells were incubated with the Factor VII mixtures for 2 hours at 37° C. After incubation, the cells were washed and incubated with 50 μl of 200 nM Factor X in tris buffered saline for 5 minutes at room temperature. Each well had 25 μl of 0.5 M EDTA and 25 μl of […] S-2222 (Kabi Pharmacia) added to it, and the plates were incubated for 40 minutes at room temperature. Chromogenic activity was analyzed at 405 nm in a microplate reader as described above.

DEGR-Factor VIIa: Recombinant human Factor VIIa with its active site derivatized by Dansyl-L-Glu-Gly-Arg-chloromethyl Ketone (DEGRck)
survival [1]: prolong survival of treated animals
inhibition of the chromogenic activity ([2]; 1:1 molar ratio of DEGR-Factor VIIa:Factor VIIa): approximately 95%
OD405 ([2]; DEGR-Factor VIIa 1.56 nM co-incubated with 100 nM Factor VIIa): .116
OD405 ([2]; DEGR-Factor VIIa 6.25 nM co-incubated with 100 nM Factor VIIa): .073
OD405 ([2]; DEGR-Factor VIIa 25.00 nM co-incubated with 100 nM Factor VIIa): .026
OD405 ([2]; DEGR-Factor VIIa 100.00 nM co-incubated with 100 nM Factor VIIa): .014
OD405 ([2]; DEGR-Factor VIIa .39 nM co-incubated with 100 nM Factor VIIa): .176
